Measurements from patent US20050004353A1 (Amgen, published 2005).
“And” between values parts separate entries of the source, which are not always exact repeats. Identical values can stand only once. Blank lines part the entries; values can stand above or below the binder they belong to.

Columns and labels:
[1] = target: T1, human interferon-gamma (IFN-γ) (human, UniProt P01579 24-161); experiment: cell-based or functional assay
T1 sequence (looked up): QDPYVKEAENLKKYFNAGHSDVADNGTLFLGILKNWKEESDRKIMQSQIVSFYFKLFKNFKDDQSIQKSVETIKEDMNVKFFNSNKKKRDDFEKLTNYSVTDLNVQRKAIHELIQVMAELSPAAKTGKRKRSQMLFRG

[2] = target: T1, human interferon-gamma (IFN-γ); experiment: ELISA on plates coated with recombinant IFN-γ, antibody purified from hybridoma supernatant
[3] = target: T1, human interferon-gamma (IFN-γ); experiment: equilibrium-binding assay in solution, free antibody captured on IFN-γ coupled beads, KinExA
Method: Binding kinetics for several of the antibodies to IFN-γ were measured by BIAcore analysis. […] Accordingly, an equilibrium-binding assay was developed and used. A fixed amount of antibody was incubated with various concentrations of IFN-γ for greater than 5 hours in order to reach equilibrium and then contacted with IFN-γ coupled beads for a very brief time, and the amount of free antibody that bound to the beads was measured in a KINEXA™ machine (Sapidyne Instruments Inc., Boise, Id.), a fluorescence based immunoassay instrument. The lowest equilibrium dissociation constant obtained, ˜24 pM, was with the 1119 antibody.

huIFN-γI77 = target: T2, huIFN-γI77 (human, UniProt P01579 24-161); experiment: cell-based or functional assay
T2 sequence (looked up): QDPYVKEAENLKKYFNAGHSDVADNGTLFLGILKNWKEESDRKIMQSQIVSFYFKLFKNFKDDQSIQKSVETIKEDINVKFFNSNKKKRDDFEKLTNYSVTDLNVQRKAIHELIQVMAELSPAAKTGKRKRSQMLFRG

huIFN-γD31 = target: T3, huIFN-γD31 (human, UniProt P01579 24-161); experiment: cell-based or functional assay
T3 sequence (looked up): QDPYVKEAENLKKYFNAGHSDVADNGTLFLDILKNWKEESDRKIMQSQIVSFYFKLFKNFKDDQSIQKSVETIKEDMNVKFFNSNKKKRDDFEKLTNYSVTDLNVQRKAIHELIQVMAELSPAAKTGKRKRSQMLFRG

huIFN-γV110 = target: T4, huIFN-γV110 (human, UniProt P01579 24-161); experiment: cell-based or functional assay
T4 sequence (looked up): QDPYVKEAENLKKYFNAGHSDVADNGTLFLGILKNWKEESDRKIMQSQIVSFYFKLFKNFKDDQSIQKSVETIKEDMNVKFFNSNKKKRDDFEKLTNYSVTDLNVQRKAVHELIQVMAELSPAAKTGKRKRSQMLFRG

cynomolgus monkey IFN-γ = target: T5, cynomolgus monkey IFN-γ (cynomolgus monkey, UniProt P63309 24-165); experiment: cell-based or functional assay
T5 sequence (looked up): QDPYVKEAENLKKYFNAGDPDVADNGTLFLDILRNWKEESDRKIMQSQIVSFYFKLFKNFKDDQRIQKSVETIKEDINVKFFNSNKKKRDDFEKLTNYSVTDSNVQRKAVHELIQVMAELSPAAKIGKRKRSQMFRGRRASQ

huIFN-γI126 = target: T6, huIFN-γI126 (human, UniProt P01579 24-161); experiment: cell-based or functional assay
T6 sequence (looked up): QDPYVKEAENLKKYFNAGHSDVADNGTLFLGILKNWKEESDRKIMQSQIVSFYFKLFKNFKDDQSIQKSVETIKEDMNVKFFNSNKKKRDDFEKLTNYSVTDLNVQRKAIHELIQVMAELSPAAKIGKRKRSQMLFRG

huIFN-γP20 = target: T7, huIFN-γP20 (human, UniProt P01579 24-161); experiment: cell-based or functional assay
T7 sequence (looked up): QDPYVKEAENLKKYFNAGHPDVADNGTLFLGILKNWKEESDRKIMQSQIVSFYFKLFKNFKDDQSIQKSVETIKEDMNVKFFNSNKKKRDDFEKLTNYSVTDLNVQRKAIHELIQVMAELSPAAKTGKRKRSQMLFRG

huIFN-γR34 = target: T8, huIFN-γR34 (human, UniProt P01579 24-161); experiment: cell-based or functional assay
T8 sequence (looked up): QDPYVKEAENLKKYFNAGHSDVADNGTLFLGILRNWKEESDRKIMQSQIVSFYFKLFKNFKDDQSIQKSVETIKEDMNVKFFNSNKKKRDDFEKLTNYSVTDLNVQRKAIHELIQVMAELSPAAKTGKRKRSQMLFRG

huIFN-γS103 = target: T9, huIFN-γS103 (human, UniProt P01579 24-161); experiment: cell-based or functional assay
T9 sequence (looked up): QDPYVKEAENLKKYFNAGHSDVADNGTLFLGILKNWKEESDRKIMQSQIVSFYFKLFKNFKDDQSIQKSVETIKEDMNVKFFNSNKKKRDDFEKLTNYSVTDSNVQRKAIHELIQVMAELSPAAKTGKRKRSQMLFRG

huIFN-γD19 = target: T10, huIFN-γD19 (human, UniProt P01579 24-161); experiment: cell-based or functional assay
T10 sequence (looked up): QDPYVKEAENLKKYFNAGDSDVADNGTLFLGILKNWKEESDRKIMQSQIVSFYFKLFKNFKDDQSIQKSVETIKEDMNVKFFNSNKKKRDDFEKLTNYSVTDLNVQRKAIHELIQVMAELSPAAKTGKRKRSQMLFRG

huIFN-γR65 = target: T11, huIFN-γR65 (human, UniProt P01579 24-161); experiment: cell-based or functional assay
T11 sequence (looked up): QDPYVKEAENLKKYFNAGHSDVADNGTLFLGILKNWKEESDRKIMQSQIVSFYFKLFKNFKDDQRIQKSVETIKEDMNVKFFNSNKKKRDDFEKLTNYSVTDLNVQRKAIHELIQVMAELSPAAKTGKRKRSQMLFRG

IC50, A549 bioassay (inhibition of the anti-proliferative effect of IFN-γ, 30 pM IFN-γ) [1]: 46 pM | IC50, THP-1/HLA DR bioassay (21 pM IFN-γ) [1]: 60 pM
B1: 1121 anti-IFN-γ antibody (antibody, V domains shown)
VH: EVQLVQSGAEVKKPGESLKISCKGSGYNFTSYWIGWVRQMPGKGLEWMGIIYPGDSDTRYSPSFQGQVTISADKSISTAYLQWSSLKASDTAMYYCGSGSYWYFDLWGRGTLVTVSS
VL: EIVLTQSPGTLSLSPGERATLSCRASQSVSSSYLAWYQQKPGQAPRLLIYGASSRATGIPDRFSGSGSGTDFTLTISRLEPEDFAVYYCQRSGGSSFTFGPGTKVDIKR

binding result [2]: binds
B2: 1121* anti-IFN-γ antibody (antibody, human IgG1, kappa, V domains shown)
VH: EVQLVQSGAEVKKPGESLKISCKGSGYNFTSYWIGWVRQMPGKGLEWMGIIYPGDSDTRYSPSFQGQVTISADKSISTAYLQWSSLKASDTAMYYCGSGSYWYFDLWGRGTLVTVSS
VL: EIVLTQSPGTLSLSPGERATLSCRASQSIISSYLAWYQQKPGQTPRLLIYGVSSRATGIPDRFSGSGSGTDFTLTITRLEPEDFAVYYCQQYGNSFMYTFGQGTKLEIKR
notes: the ELISA used antibody purified from hybridoma supernatant

IC50, A549 bioassay (inhibition of the anti-proliferative effect of IFN-γ, 30 pM IFN-γ) [1]: 97 pM | IC50, THP-1/HLA DR bioassay (21 pM IFN-γ) [1]: 86 pM
B3: 1118 anti-IFN-γ antibody (antibody, V domains shown)
VH: EVQLVQSGAEVKKPGESLKISCKGSGYSFTSYWIGWVRQMPGKGLEWMGIIYPGDSDTRYSPSFQGQVTISADKSISTAYLQWSSLKASDTAMYYCGSGSYWYFDLWGRGTLVTVSS
VL: EIVLTQSPGTLSLSPGERATLSCRASQSVSSSSLAWYQQKPGQAPRLLIYGASSRATGIPDRFSGSGSGTDFTLTISRLEPEDFAVYYCQRSGGSSFTFGPGTKVDIKR

IC50, A549 bioassay (inhibition of the anti-proliferative effect of IFN-γ, 30 pM IFN-γ) [1]: 14 pM | IC50, THP-1/HLA DR bioassay (21 pM IFN-γ) [1]: 14 pM | IC50, human whole blood bioassay (IFN-γ-induced IP-10 production), one of two donors [1]: 0.017 nM and 0.014 nM | Kd [3]: ~0.024 nM | % Neutralization by 1119 (A549 bioassay) (huIFN-γI77): 108% | % Neutralization by 1119 (A549 bioassay) (huIFN-γD31): 103% | % Neutralization by 1119 (A549 bioassay) (huIFN-γV110): 103% | % Neutralization by 1119 (A549 bioassay) (cynomolgus monkey IFN-γ): 0% | % Neutralization by 1119 (A549 bioassay) (huIFN-γI126): 109% | % Neutralization by 1119 (A549 bioassay) (huIFN-γP20): 0% | % Neutralization by 1119 (A549 bioassay) (huIFN-γR34): 109% | % Neutralization by 1119 (A549 bioassay) (huIFN-γS103): 102% | % Neutralization by 1119 (A549 bioassay) (huIFN-γD19): 0% | % Neutralization by 1119 (A549 bioassay) (huIFN-γR65): 109%
B4: 1119 anti-IFN-γ antibody (antibody, human IgG1, kappa, V domains shown)
VH: EVQLVQSGAEVKKPGESLKISCKGSGYNFTSYWIGWVRQMPGKGLELMGIIYPGDSDTRYSPSFQGQVTISADKSISTAYLQWSSLKASDTAMYYCGSGSYFYFDLWGRGTLVTVSS
VL: EIVLTQSPGTLSLSPGERATLSCRASQSVSSSYLAWYQQKPGQAPRLLIYGASSRATGIPDRFSGSGSGTDFTLTISRLEPEDFAVYYCQRSGGSSFTFGPGTKVDIKR
notes: also called 1119 antibody; 1119 mAb
